Consider one sequence from US20170145472.

The target in the series is T1, HCV NS3 helicase (Hepatitis C virus) (UniProt P26663).
T1 sequence: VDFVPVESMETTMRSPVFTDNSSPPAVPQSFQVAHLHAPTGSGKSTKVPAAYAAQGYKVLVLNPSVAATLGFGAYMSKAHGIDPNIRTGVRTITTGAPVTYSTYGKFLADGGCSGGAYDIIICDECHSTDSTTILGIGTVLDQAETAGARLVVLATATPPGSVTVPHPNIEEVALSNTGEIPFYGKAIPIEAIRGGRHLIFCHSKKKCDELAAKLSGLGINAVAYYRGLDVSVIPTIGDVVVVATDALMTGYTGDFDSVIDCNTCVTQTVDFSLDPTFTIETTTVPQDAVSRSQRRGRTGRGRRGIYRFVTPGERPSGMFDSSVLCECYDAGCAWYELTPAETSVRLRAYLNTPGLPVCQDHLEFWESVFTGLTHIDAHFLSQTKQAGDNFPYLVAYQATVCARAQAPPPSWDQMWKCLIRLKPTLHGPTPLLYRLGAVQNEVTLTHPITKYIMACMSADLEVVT

With “GTGGGTAGGGCGGGTTGGTGGCGACGGCAGCGAGGCAGAGGAGCAGAGGGAGCA / GCCTCGCTGCCGTCGCCACCAACCCGCCC [ON1/ON2 duplex substrate]”, the activity (fold luminescence enhancement) worked out at 4.5.
